The results in this text go back to PMC6411837.

Data set [1] has as its target 40S·eIF1·eIF1A·mRNA complex with WT eIF1, P32911;P38912. The experiment in a line: TC binding kinetics (kobs versus [40S], as in Figure 6A–C). Particulars: three independent experiments.
In data set [2] the test system is eIF2 with eIF2beta-F217A/Q221A;eIF1 (WT);eIF1A (WT);40S ribosomal subunit (Saccharomyces cerevisiae (yeast);Saccharomyces cerevisiae (yeast);Saccharomyces cerevisiae? (yeast);Saccharomyces cerevisiae (strain YAS2488)). The experiment in a line: EMSA kinetics. Particulars: aminoacylated with Met; 30 mM HEPES-KOH pH 7.4, 100 mM potassium acetate, 3 mM magnesium acetate, 2 mM DTT, 26 C; GDPNP; native gel shift. (Mobility shift assays separate free from complexed probe on a gel.)

The test system of data set [3] is eIF2 (WT), GDPNP-bound;eIF1-Q31A/F108A;eIF1A (WT);40S ribosomal subunit (Saccharomyces cerevisiae (yeast);Saccharomyces cerevisiae (yeast);Saccharomyces cerevisiae? (yeast);Saccharomyces cerevisiae (strain YAS2488)). The experiment in a line: EMSA kinetics. The note with it: aminoacylated with Met, 30 mM HEPES-KOH pH 7.4, 100 mM potassium acetate, 3 mM magnesium acetate, 2 mM DTT, 26 C, native gel shift.

For data set [4], the target named is ternary complex (TC) of WT eIF2, GDPNP and Met-tRNAi, P20459;P09064;P32481. The experiment in a line: TC dissociation kinetics, EMSA.
Data set [5] has as its system eIF2 with eIF2beta-E189R;eIF1 (WT);eIF1A (WT);40S ribosomal subunit (Saccharomyces cerevisiae (yeast);Saccharomyces cerevisiae (yeast);Saccharomyces cerevisiae? (yeast);Saccharomyces cerevisiae (strain YAS2488)). The experiment in a line: EMSA kinetics. Particulars: aminoacylated with Met; 30 mM HEPES-KOH pH 7.4, 100 mM potassium acetate, 3 mM magnesium acetate, 2 mM DTT, 26 C; GDPNP; native gel shift.

Regarding “ternary complex (TC) of WT eIF2, GDPNP and Met-tRNAi (from UniProt P20459;P09064;P32481) eIF2β:S202A; eIF2β:K214A”, the kon worked out at 4.11 s⁻¹ in data set [1] (mRNA(AUG)) and 2.76 s⁻¹ in data set [1] (mRNA(UUG)).

For Met-tRNAi on 40S with mRNA(AUG), the binding signal (fold decrease in kon vs WT eIF2) in data set [2] was determined as 1.5. Moreover, the binding signal (fold decrease in kon vs WT eIF1) in data set [3] stood at 2. For the substance “40S·eIF1·eIF1A·mRNA complex with WT eIF1 (from UniProt P32911;P38912) eIF1:Q31E”, the koff (as a rule, a measure of how fast the partners let go of each other) in data set [4] (mRNA(UUG), n = 4 (WT n = 5)) worked out at 3.33e-05 s⁻¹. Regarding “40S·eIF1·eIF1A·mRNA complex with WT eIF1 (from UniProt P32911;P38912) eIF1:F108D”, the koff was 5e-05 s⁻¹ in data set [4] (mRNA(AUG), n = 3 (WT n = 5)) and 7.5e-05 s⁻¹ in data set [4] (mRNA(UUG), n = 3 (WT n = 5)). Turning to Met-tRNAi on 40S with mRNA(UUG), the binding signal (fold decrease in kon vs WT eIF2) in data set [2] was determined as 1.5. The binding signal (fold decrease in koff vs WT eIF2) in data set [5] is 2.
